Experimental data: patent US20140030725

Assays:
[1] = test system: HQ:CBS:HT (5xHQ tag:CBS variant 1A5:HaloTag), from pFNA:HQ(5x):CBS:HT(7)
[2] = test system: CBS-HaloTag (CBS-HT) fusion protein (CBS variant 1A5 cloned into pFN19K HaloTag)
Sequence of CBS-HaloTag (CBS-HT) fusion protein (CBS variant 1A5 cloned into pFN19K HaloTag) (chain, as listed by the source mutant): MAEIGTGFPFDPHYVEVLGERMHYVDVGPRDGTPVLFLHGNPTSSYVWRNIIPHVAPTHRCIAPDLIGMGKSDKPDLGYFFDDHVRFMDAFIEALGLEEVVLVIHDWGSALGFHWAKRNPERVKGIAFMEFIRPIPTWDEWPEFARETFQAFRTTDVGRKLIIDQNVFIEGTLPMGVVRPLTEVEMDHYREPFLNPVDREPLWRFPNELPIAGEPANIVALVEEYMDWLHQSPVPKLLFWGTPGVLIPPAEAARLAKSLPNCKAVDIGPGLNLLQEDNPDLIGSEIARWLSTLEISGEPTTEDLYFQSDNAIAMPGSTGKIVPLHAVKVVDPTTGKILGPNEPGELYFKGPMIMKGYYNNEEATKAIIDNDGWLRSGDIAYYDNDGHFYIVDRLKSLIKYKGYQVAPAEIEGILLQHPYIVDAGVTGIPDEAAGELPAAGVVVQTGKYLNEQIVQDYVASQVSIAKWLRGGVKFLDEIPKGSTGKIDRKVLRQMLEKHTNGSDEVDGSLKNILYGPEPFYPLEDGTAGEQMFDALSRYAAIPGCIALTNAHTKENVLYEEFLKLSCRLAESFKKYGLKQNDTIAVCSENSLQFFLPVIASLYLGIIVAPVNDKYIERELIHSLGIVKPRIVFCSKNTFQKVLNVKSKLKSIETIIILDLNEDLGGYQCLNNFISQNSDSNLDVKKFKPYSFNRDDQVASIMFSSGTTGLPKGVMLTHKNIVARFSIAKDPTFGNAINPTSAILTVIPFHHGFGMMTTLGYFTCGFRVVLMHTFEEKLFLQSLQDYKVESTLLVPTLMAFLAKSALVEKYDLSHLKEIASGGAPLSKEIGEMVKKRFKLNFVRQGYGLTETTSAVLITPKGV

With “recombinant caspase-3 (E. coli KRX lysate, pTS1k:caspase-3(T/S))” the “INDUCED luminescence, HisLink elution fraction E1” value [1] was 2,951,899, the “INDUCED luminescence, HisLink elution fraction E2” value [1] was 40,913,496 and the “INDUCED luminescence, HisLink elution fraction E3” value [1] was 3,287,059. For the same substance, the “INDUCED luminescence, HisLink elution fraction E4” value [1] was 215,580, the “INDUCED luminescence, HisLink elution fraction E5” value [1] was 48,068 and the “INDUCED luminescence, HisLink purification sample HSS” value [1] was 12,875,742. The “INDUCED luminescence, HisLink purification sample NSM” value [1] was 5,822,003, the “INDUCED luminescence, HisLink purification sample WASH” value [1] was 3,706,541 and the “INDUCED luminescence, purified HQ:CBS:HT immobilised on HaloLink plate” value [1] was 661,597. The RESPONSE, HisLink elution fraction E1 [1] was 699 fold, the RESPONSE, HisLink elution fraction E2 [1] was 212 fold and the RESPONSE, HisLink elution fraction E3 [1] was 178 fold. It also gave an RESPONSE, HisLink elution fraction E4 [1] of 191 fold, an RESPONSE, HisLink elution fraction E5 [1] of 178 fold and an RESPONSE, HisLink purification sample HSS [1] of 43 fold. For the same substance, the RESPONSE, HisLink purification sample NSM [1] was 33 fold, the RESPONSE, HisLink purification sample WASH [1] was 479 fold and the RESPONSE, purified HQ:CBS:HT immobilised on HaloLink plate [1] was 96 fold. For the same substance, the “INDUCED luminescence (5 min; CBS-HT from wheat germ extract + E. coli lysate containing caspase-3)” value [2] was 4,626,173, the “INDUCED luminescence, CBS-HT immobilised on HaloLink RESIN” value [2] was 1,635,259 and the “INDUCED luminescence, CBS-HT immobilised on HaloTag-ligand plate, 0 min” value [2] was 1,226. The “INDUCED luminescence, CBS-HT immobilised on HaloTag-ligand plate, 1 min” value [2] was 1,636, the “INDUCED luminescence, CBS-HT immobilised on HaloTag-ligand plate, 2 min” value [2] was 2,267 and the “INDUCED luminescence, CBS-HT immobilised on HaloTag-ligand plate, 3 min” value [2] was 2,147. The “INDUCED luminescence, CBS-HT immobilised on HaloTag-ligand plate, 4 min” value [2] was 2,297, the “INDUCED luminescence, CBS-HT immobilised on HaloTag-ligand plate, 5 min” value [2] was 2,857 and the “INDUCED luminescence, CBS-HT immobilised on HaloTag-ligand plate, 6 min” value [2] was 3,107. The “INDUCED luminescence, CBS-HT immobilised on HaloTag-ligand plate, 7 min” value [2] was 3,377, the “INDUCED luminescence, CBS-HT immobilised on HaloTag-ligand plate, 8 min” value [2] was 3,037 and the “INDUCED luminescence, CBS-HT immobilised on HaloTag-ligand plate, 9 min” value [2] was 3,667. For the same substance, the “INDUCED luminescence, sample AS (HaloLink resin immobilisation experiment)” value [2] was 5,162,108, the “INDUCED luminescence, sample FT (HaloLink resin immobilisation experiment)” value [2] was 232,117 and the RESPONSE (induced/basal luminescence; 5 min; CBS-HT from wheat germ extract) [2] was 441 fold. The RESPONSE, CBS-HT immobilised on HaloLink RESIN [2] was 146 fold, the RESPONSE, CBS-HT immobilised on HaloTag-ligand plate, 0 min [2] was 19 fold and the RESPONSE, CBS-HT immobilised on HaloTag-ligand plate, 1 min [2] was 102 fold. The RESPONSE, CBS-HT immobilised on HaloTag-ligand plate, 2 min [2] was 21 fold, the RESPONSE, CBS-HT immobilised on HaloTag-ligand plate, 3 min [2] was 33 fold and the RESPONSE, CBS-HT immobilised on HaloTag-ligand plate, 4 min [2] was 18 fold. It also gave an RESPONSE, CBS-HT immobilised on HaloTag-ligand plate, 5 min [2] of 23 fold, an RESPONSE, CBS-HT immobilised on HaloTag-ligand plate, 6 min [2] of 41 fold and an RESPONSE, CBS-HT immobilised on HaloTag-ligand plate, 7 min [2] of 60 fold. The RESPONSE, CBS-HT immobilised on HaloTag-ligand plate, 8 min [2] was 22 fold, the RESPONSE, CBS-HT immobilised on HaloTag-ligand plate, 9 min [2] was 32 fold and the RESPONSE, sample AS (HaloLink resin immobilisation experiment) [2] was 175 fold. It also gave an RESPONSE, sample FT (HaloLink resin immobilisation experiment) [2] of 73 fold.
